Reference: patent US20030194727

What was measured:
[1] = tested on: K5 mutant ZFP (VSSR-DGAV-VSSR-VDYK-Gal4AD) N80A (Asn DNA-contacting residue of finger 2, DGNV to DGAV; position counted in SEQ 225) (Artificial Sequence); experiment: EMSA; conditions: at least 10-fold decrease in DNA-binding affinity for expected site; no ketoconazole resistance in yeast
[2] = tested on: K5 ZFP (VSSR-DGNV-VSSR-VDYK-Gal4AD) (Artificial Sequence); experiment: EMSA; conditions: reference for the mutant comparison; binding of parent K5 implied by gel shift; exact probe not given, degenerate expected site
Chain of K5 ZFP (VSSR-DGNV-VSSR-VDYK-Gal4AD) (Artificial Sequence) (chain, as listed by the source): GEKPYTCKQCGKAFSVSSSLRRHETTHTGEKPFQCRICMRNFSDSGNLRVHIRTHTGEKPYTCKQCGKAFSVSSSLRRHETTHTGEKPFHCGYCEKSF

Chain of K5 mutant ZFP (VSSR-DGAV-VSSR-VDYK-Gal4AD) N80A (Asn DNA-contacting residue of finger 2, DGNV to DGAV; position counted in SEQ 225) (Artificial Sequence) (chain, as listed by the source N80A): as the sequence (chain, as listed by the source) above, with N47A counted along it

KATGTDAACGTD (double strand) [K5 expected target site]
binding signal [1]: < 0.1 fold of K5 | binding signal [2]: 1
